Experimental data taken from patent US20230227577A1 (MYTHIC THERAPEUTICS, published 2023).

What was measured:
[1] = biological target: T1, DLL3 target antigen coated on Octet SA tips (binning experiment) (Homo sapiens (Human), UniProt Q9NYJ7 27-492, Probably biotinylated for capture on streptavidin (SA) tips. The site is not stated.); experiment: Octet binning on DLL3-coated SA tips; competitor: 3HCE4
T1 sequence: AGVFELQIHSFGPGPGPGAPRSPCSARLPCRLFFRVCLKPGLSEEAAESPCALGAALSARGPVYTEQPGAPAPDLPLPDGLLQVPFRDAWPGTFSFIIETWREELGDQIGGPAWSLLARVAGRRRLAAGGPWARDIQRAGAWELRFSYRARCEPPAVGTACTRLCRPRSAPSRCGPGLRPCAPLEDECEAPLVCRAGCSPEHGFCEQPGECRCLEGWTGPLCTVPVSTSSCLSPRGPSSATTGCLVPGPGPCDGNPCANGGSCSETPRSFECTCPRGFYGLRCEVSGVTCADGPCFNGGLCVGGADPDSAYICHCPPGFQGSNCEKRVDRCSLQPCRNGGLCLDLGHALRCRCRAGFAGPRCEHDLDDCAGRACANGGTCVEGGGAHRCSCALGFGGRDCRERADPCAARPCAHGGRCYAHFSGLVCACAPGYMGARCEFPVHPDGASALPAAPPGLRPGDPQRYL
Experimental: (§1) Antibody binning experiments were carried out for 5 anti-DLL3 VHHs and an anti-human DLL3 BiTE (SEQ ID NO: 756). The target antigen was coated on a series of Octet SA tips. Each series of tips was first soaked in a periplasmic extract containing one specific VHH. After the response signals reached saturation, the tips were transferred to a mix of PEs containing again the first VHH (at the same concentration) plus a different VHH (termed secondary VHH) for each tip of the series. Secondary VHH that still bind the target antigen in the presence of the first VHH will show an increased response, as compared to the binding response of the first VHH alone. This was repeated for each VHH as primary VHH until all VHH were tested against each other in both directions (as primary and as secondary binder). From the response data, the bins were deduced for each VHH. 2HCE117 and 3HCE4 show competition with the human DLL3 BiTEs, whereas 3HCE56 and 3HCE87 show a partial competition.

[2] = biological target: T1, DLL3 target antigen coated on Octet SA …; experiment: Octet binning on DLL3-coated SA tips; competitor: 2HCE27
Experimental: as §1

[3] = biological target: T1, DLL3 target antigen coated on Octet SA …; experiment: Octet binning on DLL3-coated SA tips; competitor: 3HCE56
Experimental: as §1

[4] = biological target: T2, recombinant human DLL3 protein (human, UniProt Q9NYJ7 27-492, limits assumed); experiment: SPR, control: individual binding construct
T2 construct: also called rhu DLL3; human biotinylated DLL3
T2 sequence (looked up): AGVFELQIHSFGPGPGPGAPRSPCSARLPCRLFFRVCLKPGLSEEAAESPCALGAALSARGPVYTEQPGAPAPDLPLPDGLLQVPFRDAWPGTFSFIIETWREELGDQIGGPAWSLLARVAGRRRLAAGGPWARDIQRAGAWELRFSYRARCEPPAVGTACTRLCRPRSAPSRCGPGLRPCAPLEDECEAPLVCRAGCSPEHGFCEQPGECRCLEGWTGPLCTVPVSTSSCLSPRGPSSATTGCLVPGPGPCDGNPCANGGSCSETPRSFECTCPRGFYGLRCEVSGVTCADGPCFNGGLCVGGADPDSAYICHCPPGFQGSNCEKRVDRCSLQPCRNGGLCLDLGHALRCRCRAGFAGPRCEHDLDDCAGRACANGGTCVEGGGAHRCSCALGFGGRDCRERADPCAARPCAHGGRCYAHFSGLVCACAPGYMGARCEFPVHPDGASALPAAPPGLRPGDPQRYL
Experimental: Surface Plasmon Resonance (SPR) was used to assess the binding kinetics and binding affinity. Kinetic rate coefficients were recovered from binding analysis experiments performed with a Biacore 3000 biosensor. Concentrations of the anti-DLL3/anti-CD3/anti-HSA trispecific binding construct ranging from 1.23 nM to 300 nM were run against the SPR sensorgram surfaces immobilized with recombinant human CD3 (rhu CD3) or recombinant HSA (rHSA). Concentrations of recombinant human DLL3 (rhu DLL3) ranging from 1.23 nM to 100 nM were run against the SPR sensorgram surface immobilized with the anti-DLL3/anti-CD3/anti-HSA trispecific binding construct. The association and dissociation phase data were globally fit to a 1:1 model to determine the association rate coefficient (kₒₙ), dissociation rate coefficient (koff), the Rmax value, and the dissociation constant (KD). Results were reported as the global fits to 1:1 model±standard error. The control groups were the three corresponding individual binding constructs. All three antigen binding domains in the trispecific binding construct retain binding to the corresponding antigen.

[5] = biological target: T1, DLL3 target antigen coated on Octet SA …; experiment: Octet binning on DLL3-coated SA tips; competitor: 3HCE87
Experimental: as §1

DLL3 (ELISA DLL3) = biological target: T3, DLL3 (ELISA DLL3); experiment: ELISA, ratio of the signal on DLL3 to the signal on the control
T3 construct: also called DLL3 protein in ELISA
T3 chain: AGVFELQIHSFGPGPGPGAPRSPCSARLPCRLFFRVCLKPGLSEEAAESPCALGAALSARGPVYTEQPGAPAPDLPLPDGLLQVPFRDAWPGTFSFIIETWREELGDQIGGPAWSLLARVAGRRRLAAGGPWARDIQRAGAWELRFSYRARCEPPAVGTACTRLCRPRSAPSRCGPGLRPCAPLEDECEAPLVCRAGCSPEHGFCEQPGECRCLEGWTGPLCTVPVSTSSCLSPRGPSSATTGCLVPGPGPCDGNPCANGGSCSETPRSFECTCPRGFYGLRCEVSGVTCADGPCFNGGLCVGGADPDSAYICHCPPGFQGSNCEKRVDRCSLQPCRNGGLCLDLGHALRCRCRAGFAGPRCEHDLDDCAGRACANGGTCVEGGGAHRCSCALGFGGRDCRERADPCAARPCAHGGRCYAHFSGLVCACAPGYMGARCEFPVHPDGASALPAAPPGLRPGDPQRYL

[6] = biological target: T2, recombinant human DLL3 protein; experiment: Fortebio Octet Red, DLL3 immobilised on tips, dilution series of the VHH, 1:1 binding model; koff error 6.05E-07; Full R2 0.9994
Experimental: Additional experiments were carried out to further characterize the binding properties of the anti-DLL3 constructs. Binding properties tested include dissociation constant (KD), off-rate (koff), binding to DLL3 protein by ELISA and binding to CHO cells expressing human, cyno or mouse DLL3. To obtain off-rate (koff), human biotinylated DLL3 was immobilized on Octet SA tips, and cynomolgus or mouse DLL3 was immobilized on Octet AR2G tips. For each DLL3 protein, the binding to a dilution series of each anti-DLL3 construct was measured using Fortebio Octet Red. The dissociation constant (KD), off-rate (koff) and other kinetic parameters for each anti-DLL3 construct were calculated using a 1:1 binding model. In addition, binding of these anti-DLL3 constructs to CHO cells expressing human, cyno or mouse DLL3 protein was analyzed using flow cytometry (FACS).

mouse DLL3 protein = biological target: T4, mouse DLL3 protein (mouse, UniProt O88516 33-490, limits assumed); experiment: Octet (DLL3 on AR2G tips), ELISA and FACS; values only in FIG. 3
T4 construct: also called murine DLL3
T4 sequence (looked up): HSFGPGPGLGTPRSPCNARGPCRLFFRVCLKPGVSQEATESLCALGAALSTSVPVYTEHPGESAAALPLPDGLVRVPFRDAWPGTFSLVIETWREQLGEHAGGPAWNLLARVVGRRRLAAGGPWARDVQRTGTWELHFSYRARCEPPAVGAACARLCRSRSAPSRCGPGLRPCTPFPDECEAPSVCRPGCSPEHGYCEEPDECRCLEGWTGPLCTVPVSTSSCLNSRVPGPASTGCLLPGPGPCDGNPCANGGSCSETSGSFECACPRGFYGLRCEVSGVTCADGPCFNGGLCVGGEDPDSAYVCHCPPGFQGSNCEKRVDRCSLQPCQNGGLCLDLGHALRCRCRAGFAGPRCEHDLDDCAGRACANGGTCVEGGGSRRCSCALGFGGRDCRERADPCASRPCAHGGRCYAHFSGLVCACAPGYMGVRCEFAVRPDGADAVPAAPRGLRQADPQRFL

binning response (unit not given) [1]: 53.4 | binning response (unit not given) [2]: 0 | binning response (unit not given) [3]: 6500 | Kd [4]: 7.89 nM | koff [4]: 0.00064 s⁻¹ | kon [4]: 80000 M⁻¹ s⁻¹ | binning response (unit not given) [5]: 87.5 | DLL3 / control (DLL3 (ELISA DLL3)): 33.3 | koff [6]: 0.000638 s⁻¹ | binding result (mouse DLL3 protein): binds
B1: 2HCE27 anti-DLL3 VHH (VHH)
VHH: QVQLQESGGGLVQAGGSLRLSCAASGRTFRSYAMGWFRQAPGKEREFIAVIIMSDGSTSYADSVKGRFTISRDNAKNTLYLQMNSLKPEDTAVYYCAARRDYFTGVYDYWGQGTQVTVSS
notes: In the binning assay it was used as a periplasmic extract; also called anti-DLL3 (2HCE27)
